Among the data in the supplement of paper PMC9233669 are self-aminoacylation values, retold here.

This sample holds only a part of the variants without activity.

Series [1] relates to biotinyl-Phe-oxazolone. Briefly: self-aminoacylation, catalytic enhancement (BFO) (fold over background); higher = more active; k-Seq, kA / k0A0; sequences stand for … in GGGAAUGGAUCCACAUCUACGAAUUC…UUCACUGCAGACUUGACGAAGCUG
An outline of the steps:
(§1)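 Mutagenized RNA pools (0.43 μM; 21-nt variable region) were treated with 2–1250 μM of each biotinyl-aminoacyl-oxazolone. Conditions were 50 μL HEPES/NaCl/KCl/MgCl2/CaCl2 buffer, 5% acetonitrile, pH 6.9–7.0, room temperature, 90 minutes. Catalytic enhancement, the median kA relative to the uncatalyzed rate, was derived from streptavidin capture, qPCR and Illumina sequencing.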

Series [2] relates to biotinyl-Ile-oxazolone. Briefly: self-aminoacylation, catalytic enhancement (BIO) (fold over background); higher = more active; k-Seq, kA / k0A0; sequences stand for … in GGGAAUGGAUCCACAUCUACGAAUUC…UUCACUGCAGACUUGACGAAGCUG
The gist of the method:
as §1

In series [3] the test system is biotinyl-Met-oxazolone. Briefly: self-aminoacylation, catalytic enhancement (BMO) (fold over background); higher = more active; k-Seq, kA / k0A0; sequences stand for … in GGGAAUGGAUCCACAUCUACGAAUUC…UUCACUGCAGACUUGACGAAGCUG
An outline of the steps: as §1

Series [4] concerns biotinyl-Val-oxazolone. As to the kind of experiment: self-aminoacylation, catalytic enhancement (BVO) (fold over background); higher = more active; k-Seq, kA / k0A0; sequences stand for … in GGGAAUGGAUCCACAUCUACGAAUUC…UUCACUGCAGACUUGACGAAGCUG
The gist of the method:
as §1

The subject of series [5] is biotinyl-Leu-oxazolone. Briefly: self-aminoacylation, catalytic enhancement (BLO) (fold over background); higher = more active; k-Seq, kA / k0A0; sequences stand for … in GGGAAUGGAUCCACAUCUACGAAUUC…UUCACUGCAGACUUGACGAAGCUG
An outline of the steps: as §1

In series [6] the test system is biotinyl-Trp-oxazolone. As to the kind of experiment: self-aminoacylation, catalytic enhancement (BWO) (fold over background); higher = more active; k-Seq, kA / k0A0; sequences stand for … in GGGAAUGGAUCCACAUCUACGAAUUC…UUCACUGCAGACUUGACGAAGCUG
The gist of the method:
as §1

Consider “AUUACGCUGGUCAUCGAGUCA [Fam2.1 aminoacylation ribozyme variant]”, for which the self-aminoacylation in series [1] was found to be 0.768; in series [2], 1.15; in series [3], 1.15; in series [4] it was 1.23; in series [5], 1; in series [6], 0.981.
As for “AUUCACCUAGGUCAUCGGGCC [Fam2.2 aminoacylation ribozyme variant]”, the self-aminoacylation is 14.7 in series [1]; 2.73 in series [2]; 3.51 in series [3]; 2.97 in series [4]; 4.1 in series [5]; 4.4 in series [6].
On to “AUUUCCCUCGUCAUCGAGUGA [Fam2.1 aminoacylation ribozyme variant]”, for which the self-aminoacylation came to 21.2 in series [1]; 2.5 in series [2]; 3.39 in series [3]; 2.6 in series [4]; 3.93 in series [5]; 4.57 in series [6].
For “AUUUCCCGGGUCAUCGAGUGA [Fam2.1 aminoacylation ribozyme variant]”, the self-aminoacylation worked out at 45.6 in series [1]; 3.37 in series [2]; 5.43 in series [3]; 3.93 in series [4]; 6.51 in series [5]; 6.24 in series [6].
On to “AAGUUUACUAAUAGUCGCAAU [Fam3.1 aminoacylation ribozyme variant]”, for which the self-aminoacylation worked out at 3.51 in series [1]; 1.86 in series [2]; 1.48 in series [3]; 1.6 in series [4]; 1.42 in series [5]; 1.99 in series [6].
As for “AUUCACCUAGGACAUAGGGUG [Fam2.2 aminoacylation ribozyme variant]”, the self-aminoacylation in series [1] amounted to 18.6; in series [2], 2.06; in series [3] it was 3.54; in series [4], 2.01; in series [5], 4.7; in series [6], 3.23.
On to “AUUUACCUGGUCAUCGAGUGA [Fam2.1 aminoacylation ribozyme variant]”, for which the self-aminoacylation is 8.89 in series [1]; 4 in series [2]; 7.97 in series [3]; 4.29 in series [4]; 7.77 in series [5]; 8.91 in series [6].
In the case of “CUUACCCUGGUCAUUGAGUGA [Fam2.1 aminoacylation ribozyme variant]”, the self-aminoacylation was found to be 22.8 in series [1]; 3.9 in series [2]; 7.17 in series [3]; 3.81 in series [4]; 7.58 in series [5]; 8.86 in series [6].
For the sequence “GUUACCCUGGACAUCGAGUGA [Fam2.1 aminoacylation ribozyme variant]”, the self-aminoacylation in series [1] is 48; in series [2], 4.6; in series [3], 8.05; in series [4] it was 4.58; in series [5] it was 9.14; in series [6] it was 9.84.
In the case of “AACUUUGAUAAUAGUCGCAAG [Fam3.1 aminoacylation ribozyme variant]”, the self-aminoacylation worked out at 2.61 in series [1]; 1.71 in series [2]; 1.66 in series [3]; 1.42 in series [4]; 1.91 in series [5]; 1.55 in series [6].
Turning to “AUUCACCUAGGGCAUUGGGUG [Fam2.2 aminoacylation ribozyme variant]”, the self-aminoacylation was 42.8 in series [1]; 3.74 in series [2]; 6.54 in series [3]; 3.49 in series [4]; 8.05 in series [5]; 6.12 in series [6].
Regarding “CCACACUUCAAGCAAUCCGUA [Fam1B.1 aminoacylation ribozyme variant]”, the self-aminoacylation in series [1] came out at 0.597; in series [2] it was 0.876; in series [3], 0.668; in series [4], 1.04; in series [5], 0.927; in series [6] it was 0.837.
Take “AUCCACCUAGGUCUUCGGGUG [Fam2.2 aminoacylation ribozyme variant]”: the self-aminoacylation in series [1] worked out at 37.1; in series [2], 4.4; in series [3] it was 5.09; in series [4], 6.01; in series [5], 6.56; in series [6], 6.45.
On to “AUUCGCCUAGUUCAUCGGGUG [Fam2.2 aminoacylation ribozyme variant]”, for which the self-aminoacylation was determined as 16.2 in series [1]; 2.26 in series [2]; 2.85 in series [3]; 2.8 in series [4]; 3.82 in series [5]; 3.62 in series [6].
Take “AGUCACCUAGGUCAUCGGGUU [Fam2.2 aminoacylation ribozyme variant]”: the self-aminoacylation was 21.7 in series [1]; 4.28 in series [2]; 5.25 in series [3]; 4.18 in series [4]; 7.09 in series [5]; 4.8 in series [6].
Regarding “AUUCACCUAGGUCAUAAGGUG [Fam2.2 aminoacylation ribozyme variant]”, the self-aminoacylation in series [1] worked out at 6.42; in series [2] it was 1.98; in series [3] it was 3.33; in series [4], 1.69; in series [5] it was 3.48; in series [6], 2.59.
In the case of “CUACUUCAAACAUUCAGUCUG [Fam1A.1 aminoacylation ribozyme variant]”, the self-aminoacylation in series [1] turned out to be 0.971; in series [2], 1.04; in series [3], 0.734; in series [4] it was 0.812; in series [5], 0.741; in series [6], 0.602.
“AUUUCCCUGGUAAUCGAGUGA [Fam2.1 aminoacylation ribozyme variant]”: the self-aminoacylation was determined as 57.7 in series [1]; 3.84 in series [2]; 7.89 in series [3]; 4.01 in series [4]; 8.19 in series [5]; 9.31 in series [6].
As for “AUUACCCUGGACAUCGAGUGU [Fam2.1 aminoacylation ribozyme variant]”, the self-aminoacylation in series [1] came out at 5.95; in series [2], 1.51; in series [3] it was 3.35; in series [4], 2.66; in series [5] it was 3.35; in series [6] it was 4.38.
With “UCACACUUCAAGCACUCGGUC [Fam1B.1 aminoacylation ribozyme variant]”, the self-aminoacylation was 0.873 in series [1]; 0.94 in series [2]; 0.873 in series [3]; 1.32 in series [4]; 0.927 in series [5]; 0.771 in series [6].
“AGUACCCUGGUCACCGAGUGA [Fam2.1 aminoacylation ribozyme variant]”: the self-aminoacylation in series [1] stood at 54.5; in series [2] it was 4.52; in series [3] it was 8.83; in series [4], 4.11; in series [5] it was 9.52; in series [6] it was 11.1.
Regarding “AAGAUUGCAAAUAGUCGCAAG [Fam3.1 aminoacylation ribozyme variant]”, the self-aminoacylation in series [1] was found to be 1.38; in series [2], 1.43; in series [3] it was 1.27; in series [4], 1.29; in series [5], 1.58; in series [6], 2.48.
With “CCACACGUCAAGCAAUCGGAC [Fam1B.1 aminoacylation ribozyme variant]”, the self-aminoacylation in series [1] was found to be 0.667; in series [2], 1.53; in series [3], 1.14; in series [4], 2.03; in series [5], 1.36; in series [6] it was 0.681.
